Reference: publication PMC5333631 (Scientific Reports, 2017)

Molecular target: 6xHis-TrxA-BoNT/A2-HC (UniProt Q45894 871-1296)
Assay: pull-down
Conditions: both partners purified

Chain of 6xHis-TrxA-BoNT/A2-HC (Q45894 871-1296): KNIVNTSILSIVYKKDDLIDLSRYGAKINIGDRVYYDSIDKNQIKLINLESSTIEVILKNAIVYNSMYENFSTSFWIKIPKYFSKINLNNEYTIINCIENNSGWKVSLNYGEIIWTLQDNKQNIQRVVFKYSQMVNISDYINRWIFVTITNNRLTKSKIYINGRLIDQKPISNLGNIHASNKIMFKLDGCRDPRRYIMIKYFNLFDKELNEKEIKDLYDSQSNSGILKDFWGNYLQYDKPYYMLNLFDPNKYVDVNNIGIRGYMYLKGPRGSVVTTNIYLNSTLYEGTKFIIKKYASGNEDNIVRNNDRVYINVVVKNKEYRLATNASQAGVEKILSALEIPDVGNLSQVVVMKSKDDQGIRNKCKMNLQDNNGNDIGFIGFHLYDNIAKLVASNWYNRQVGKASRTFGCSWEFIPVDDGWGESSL

B1: luminal domain (LD) of human SV2C (domain or fragment, UniProt Q496J9 456-574, looked up)
chain: DVIKPLQSDEYALLTRNVERDKYANFTINFTMENQIHTGMEYDNGRFIGVKFKSVTFKDSVFKSCTFEDVTSVNTYFKNCTFIDTVFDNTDFEPYKFIDSEFKNCSFFHNKTGCQITFD
notes: also called SV2C-LD; untagged SV2C-LD; not shown: 6xHis, N-terminal, cleaved
B1: binds.
